Measurements reported in the supplement of paper PMC10065799, “High-throughput profiling of sequence recognition by tyrosine kinases and SH2 domains using bacterial peptide display” (eLife, 2023).

Columns and labels:
AncSZ = assay: phosphorylation enrichment, bacterial display (enrichment ratio); higher = better substrate or ligand; peptides without Tyr show the background
Fes = Fes (UniProt P07332); assay: as above
Hck = Hck (UniProt P08631); assay: as above
c-Abl (mouse) = assay: as above
MERTK = MERTK (UniProt Q12866); assay: as above
Chain of MERTK (Q12866 whole entry, looked up): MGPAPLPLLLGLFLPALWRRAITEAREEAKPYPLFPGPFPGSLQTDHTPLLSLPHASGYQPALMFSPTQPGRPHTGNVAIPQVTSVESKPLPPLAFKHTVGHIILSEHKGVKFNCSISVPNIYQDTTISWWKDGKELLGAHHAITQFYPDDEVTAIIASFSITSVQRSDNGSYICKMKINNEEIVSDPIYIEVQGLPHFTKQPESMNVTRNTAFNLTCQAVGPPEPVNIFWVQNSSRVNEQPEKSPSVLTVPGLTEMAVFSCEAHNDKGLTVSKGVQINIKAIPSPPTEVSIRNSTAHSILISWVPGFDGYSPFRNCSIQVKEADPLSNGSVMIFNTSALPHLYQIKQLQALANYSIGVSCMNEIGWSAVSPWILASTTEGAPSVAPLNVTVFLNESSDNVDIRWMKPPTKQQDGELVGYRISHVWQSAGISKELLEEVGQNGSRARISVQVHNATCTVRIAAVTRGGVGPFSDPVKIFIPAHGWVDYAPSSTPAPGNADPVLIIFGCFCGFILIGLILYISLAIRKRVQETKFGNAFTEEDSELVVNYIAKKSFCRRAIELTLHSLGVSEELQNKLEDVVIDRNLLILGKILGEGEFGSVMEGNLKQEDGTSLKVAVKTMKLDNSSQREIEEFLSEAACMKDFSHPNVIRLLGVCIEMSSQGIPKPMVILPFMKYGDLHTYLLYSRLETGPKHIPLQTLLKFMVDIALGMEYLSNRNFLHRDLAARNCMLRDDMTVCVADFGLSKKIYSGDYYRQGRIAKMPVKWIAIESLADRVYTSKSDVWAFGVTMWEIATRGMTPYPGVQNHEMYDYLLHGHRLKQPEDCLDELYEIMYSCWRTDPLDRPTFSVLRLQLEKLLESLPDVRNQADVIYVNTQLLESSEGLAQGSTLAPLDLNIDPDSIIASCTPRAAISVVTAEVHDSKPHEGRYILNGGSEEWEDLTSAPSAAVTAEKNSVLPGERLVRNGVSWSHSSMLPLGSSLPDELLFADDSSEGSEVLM

EPHB1 = EPHB1 (UniProt P54762); assay: as above
EPHB2 = EPHB2 (UniProt P29323); assay: as above
c-Src = assay: as above
FGFR1 = FGFR1 (UniProt P11362); assay: as above
Chain of FGFR1 (P11362 whole entry, looked up): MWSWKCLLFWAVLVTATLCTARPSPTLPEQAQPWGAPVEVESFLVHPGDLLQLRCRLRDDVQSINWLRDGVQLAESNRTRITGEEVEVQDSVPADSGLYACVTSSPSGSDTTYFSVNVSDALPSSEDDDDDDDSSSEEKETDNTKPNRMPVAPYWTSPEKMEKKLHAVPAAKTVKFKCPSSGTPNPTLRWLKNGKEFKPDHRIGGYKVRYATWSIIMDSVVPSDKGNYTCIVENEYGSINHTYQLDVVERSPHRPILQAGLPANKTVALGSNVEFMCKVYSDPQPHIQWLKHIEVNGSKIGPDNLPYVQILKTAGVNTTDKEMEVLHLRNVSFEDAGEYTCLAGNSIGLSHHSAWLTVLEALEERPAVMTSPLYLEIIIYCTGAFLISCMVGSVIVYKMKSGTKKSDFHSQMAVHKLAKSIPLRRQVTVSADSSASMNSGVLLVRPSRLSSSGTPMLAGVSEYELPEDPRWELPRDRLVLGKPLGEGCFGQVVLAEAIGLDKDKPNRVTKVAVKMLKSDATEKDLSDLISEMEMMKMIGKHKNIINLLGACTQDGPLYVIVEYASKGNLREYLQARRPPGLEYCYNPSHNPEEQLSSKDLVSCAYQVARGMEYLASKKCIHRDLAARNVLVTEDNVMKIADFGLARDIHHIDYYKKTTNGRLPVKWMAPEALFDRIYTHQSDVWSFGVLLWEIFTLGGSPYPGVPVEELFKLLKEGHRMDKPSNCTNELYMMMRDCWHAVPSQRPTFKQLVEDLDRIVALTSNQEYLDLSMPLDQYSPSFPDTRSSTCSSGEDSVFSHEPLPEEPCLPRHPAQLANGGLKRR

Fer (mouse) = assay: as above
FGFR3 = FGFR3 (UniProt P22607); assay: as above
Chain of FGFR3 (P22607 whole entry, looked up): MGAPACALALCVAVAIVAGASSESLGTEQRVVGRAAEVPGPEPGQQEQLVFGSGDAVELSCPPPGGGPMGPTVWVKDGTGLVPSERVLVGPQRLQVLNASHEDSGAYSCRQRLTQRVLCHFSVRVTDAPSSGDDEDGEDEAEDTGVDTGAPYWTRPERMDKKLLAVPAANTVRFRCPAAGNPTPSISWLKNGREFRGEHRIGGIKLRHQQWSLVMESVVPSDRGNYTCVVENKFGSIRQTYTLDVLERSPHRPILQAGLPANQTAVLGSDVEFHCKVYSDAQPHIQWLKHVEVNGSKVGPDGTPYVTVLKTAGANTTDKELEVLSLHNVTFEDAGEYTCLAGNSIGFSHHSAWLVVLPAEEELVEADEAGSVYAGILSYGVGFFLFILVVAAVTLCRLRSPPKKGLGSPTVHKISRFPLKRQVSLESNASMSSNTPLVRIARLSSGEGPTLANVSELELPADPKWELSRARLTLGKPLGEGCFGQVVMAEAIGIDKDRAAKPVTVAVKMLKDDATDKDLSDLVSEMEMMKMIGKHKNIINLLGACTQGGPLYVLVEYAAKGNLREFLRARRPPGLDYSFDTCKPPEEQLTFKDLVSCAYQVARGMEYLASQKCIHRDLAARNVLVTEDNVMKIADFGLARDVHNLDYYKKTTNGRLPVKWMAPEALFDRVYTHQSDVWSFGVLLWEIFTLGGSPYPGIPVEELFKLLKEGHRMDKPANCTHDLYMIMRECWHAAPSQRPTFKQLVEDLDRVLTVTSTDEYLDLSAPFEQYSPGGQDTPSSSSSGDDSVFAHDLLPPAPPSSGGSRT

Jak2 = Jak2 (UniProt O60674); assay: as above
Chain of Jak2 (O60674 whole entry, looked up): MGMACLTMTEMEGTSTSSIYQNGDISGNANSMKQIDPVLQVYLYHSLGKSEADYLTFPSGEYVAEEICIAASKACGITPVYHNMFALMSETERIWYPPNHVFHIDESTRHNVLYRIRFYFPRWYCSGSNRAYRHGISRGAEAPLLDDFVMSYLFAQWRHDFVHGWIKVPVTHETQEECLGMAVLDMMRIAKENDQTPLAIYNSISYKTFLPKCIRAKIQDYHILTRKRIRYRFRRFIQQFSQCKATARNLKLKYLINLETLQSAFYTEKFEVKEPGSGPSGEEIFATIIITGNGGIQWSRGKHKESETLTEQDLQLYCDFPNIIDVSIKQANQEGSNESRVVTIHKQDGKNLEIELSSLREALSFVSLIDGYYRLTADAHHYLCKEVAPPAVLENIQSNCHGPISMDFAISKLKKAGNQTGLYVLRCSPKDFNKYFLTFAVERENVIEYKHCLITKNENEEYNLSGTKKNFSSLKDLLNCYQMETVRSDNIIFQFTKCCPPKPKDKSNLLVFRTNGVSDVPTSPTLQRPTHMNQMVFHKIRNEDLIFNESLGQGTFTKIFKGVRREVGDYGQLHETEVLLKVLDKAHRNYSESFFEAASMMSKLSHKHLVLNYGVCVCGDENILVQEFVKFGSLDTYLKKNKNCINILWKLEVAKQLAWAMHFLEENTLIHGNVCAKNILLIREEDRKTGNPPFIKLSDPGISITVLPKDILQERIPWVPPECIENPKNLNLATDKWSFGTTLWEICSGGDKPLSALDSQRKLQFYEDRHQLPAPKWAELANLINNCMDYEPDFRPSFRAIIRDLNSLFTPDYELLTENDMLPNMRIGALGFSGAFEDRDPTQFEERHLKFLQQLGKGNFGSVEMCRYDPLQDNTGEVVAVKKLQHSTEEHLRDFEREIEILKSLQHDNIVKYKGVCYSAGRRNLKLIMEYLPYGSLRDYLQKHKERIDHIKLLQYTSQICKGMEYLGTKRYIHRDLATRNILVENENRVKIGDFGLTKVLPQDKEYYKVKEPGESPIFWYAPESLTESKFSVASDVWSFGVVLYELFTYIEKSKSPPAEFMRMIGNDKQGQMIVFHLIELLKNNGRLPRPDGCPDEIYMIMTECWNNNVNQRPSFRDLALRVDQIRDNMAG

Fyn = Fyn (UniProt P06241); assay: as above
Chain of Fyn (P06241 whole entry, looked up): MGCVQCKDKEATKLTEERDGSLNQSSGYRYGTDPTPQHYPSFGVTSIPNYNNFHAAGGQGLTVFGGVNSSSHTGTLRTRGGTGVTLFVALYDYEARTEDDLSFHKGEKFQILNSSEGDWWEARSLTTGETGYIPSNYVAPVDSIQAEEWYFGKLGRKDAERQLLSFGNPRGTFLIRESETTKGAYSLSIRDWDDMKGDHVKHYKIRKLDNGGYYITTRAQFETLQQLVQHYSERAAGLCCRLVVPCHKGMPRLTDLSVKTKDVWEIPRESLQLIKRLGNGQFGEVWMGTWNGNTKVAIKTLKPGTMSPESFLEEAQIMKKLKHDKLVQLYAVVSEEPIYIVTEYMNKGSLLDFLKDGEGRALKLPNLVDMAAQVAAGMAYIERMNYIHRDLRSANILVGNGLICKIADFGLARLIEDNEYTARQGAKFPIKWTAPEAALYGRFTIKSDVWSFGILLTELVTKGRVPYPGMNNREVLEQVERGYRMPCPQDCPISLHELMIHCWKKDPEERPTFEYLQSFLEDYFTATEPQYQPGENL

SHP2-C SH2 = assay: SH2 binding enrichment of the phosphorylated peptide, bacterial display (enrichment ratio); higher = better substrate or ligand; peptides without Tyr show the background
c-Src SH2 = assay: as above
Grb2 SH2 = Grb2 SH2 (UniProt P62993); assay: as above
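For SH2 binding enrichment of the phosphorylated peptide, bacterial display in this document: peptide library displayed on the E. coli surface as eCPX fusions, selected cells deep-sequenced, score is each peptide's frequency after selection divided by its frequency in the input.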
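For phosphorylation enrichment, bacterial display in this document: 11-residue human phosphosite peptides and single-mutation variants displayed on the E. coli surface, counted by deep sequencing, each peptide's frequency after selection divided by its frequency in the unselected input library; frequency after pTyr selection over input frequency; kinase dosed for 20-30% of maximal phosphorylation in three min.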

Chain of Hck (P08631 whole entry, looked up): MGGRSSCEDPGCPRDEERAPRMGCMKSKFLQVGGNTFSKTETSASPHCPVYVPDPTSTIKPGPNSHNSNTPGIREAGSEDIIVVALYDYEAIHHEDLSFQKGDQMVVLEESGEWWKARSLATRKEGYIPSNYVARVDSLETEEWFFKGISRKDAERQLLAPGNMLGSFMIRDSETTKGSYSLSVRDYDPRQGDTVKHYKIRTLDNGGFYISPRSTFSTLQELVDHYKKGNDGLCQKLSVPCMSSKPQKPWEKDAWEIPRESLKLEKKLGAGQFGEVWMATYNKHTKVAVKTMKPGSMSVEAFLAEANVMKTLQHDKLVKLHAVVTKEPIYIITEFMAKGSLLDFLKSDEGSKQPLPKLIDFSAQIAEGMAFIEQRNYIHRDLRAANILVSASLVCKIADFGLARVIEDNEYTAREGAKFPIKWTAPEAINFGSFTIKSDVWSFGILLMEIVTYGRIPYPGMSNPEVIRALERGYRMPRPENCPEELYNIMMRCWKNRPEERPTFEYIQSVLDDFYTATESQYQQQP

Sequence	SH2 binding enrichment (SHP2-C SH2)	SH2 binding enrichment (c-Src SH2)	SH2 binding enrichment (Grb2 SH2)	phosphorylation enrichment (AncSZ)	phosphorylation enrichment (Fes)	phosphorylation enrichment (Hck)	phosphorylation enrichment (c-Abl (mouse))	phosphorylation enrichment (MERTK)	phosphorylation enrichment (EPHB1)	phosphorylation enrichment (EPHB2)	phosphorylation enrichment (c-Src)	phosphorylation enrichment (FGFR1)	phosphorylation enrichment (Fer (mouse))	phosphorylation enrichment (FGFR3)	phosphorylation enrichment (Jak2)	phosphorylation enrichment (Fyn)
ERPGVYTNVVE [F11_Y608]	0.979	6.19	4.93	0.66	0.62	0.463	0.513	0.383	0.417	0.423	0.442	0.438	0.413	0.538	0.519	0.481
GVPLGYPIKAS [ELN_Y206_P211S]	0.581	0.423	0.783	0.438	0.576	0.404	0.714	0.366	0.327	0.333	0.381	0.407	0.376	0.412	0.477	0.368
GFKVRYATWSI [FGFR1_Y210_YF]	1.63	1.16	1.64	1.11	1.22	0.512	0.711	0.499	0.714	0.534	0.392	0.463	0.512	0.795	0.997	0.494
LKSEMYQKLFK [RGS13_Y146_L150F]	1.24	0.982	0.829	1.02	0.993	0.756	0.769	0.7	0.5	0.614	0.626	0.715	0.596	0.923	1.77	0.493
PSDSGYSYETI [MAP1B_Y1921]	0.523	7.7	1.79	1.35	1.38	0.577	0.664	0.583	0.596	0.467	0.454	0.627	0.642	0.688	0.848	0.599
NHQYDYTFHWT [CSNK1A1_Y294_D297H]	0.938	2.86	1.15	2.13	0.938	0.758	0.7	3.15	3.18	3.07	1.84	5.52	9.26	3.88	0.892	0.602
HSVVQYVGGVM [FGGY_Y136_L134V]	2.89	0.465	0.885	0.989	0.911	0.609	0.61	0.603	0.517	0.572	0.491	0.447	0.643	0.629	0.726	0.465
CTTSHYNFMCN [TP53_Y234_I232S_YF]	1.04	4.04	1.14	0.911	0.967	0.446	0.613	0.455	0.516	0.533	0.48	0.509	0.552	0.637	0.884	0.484
HDRNTYEKYLE [TF_Y666_G671E]	1.14	1.62	0.681	1.07	1.21	0.736	1.08	0.506	0.505	0.595	0.995	0.584	0.715	0.748	1.24	0.856
ELETLYKKAVK [CC2D2A_Y381]	0.589	0.458	0.809	0.702	0.896	0.554	0.517	0.416	0.526	0.47	0.323	0.485	0.37	0.731	0.684	0.366
FSIAQYCCRMG [LRRK2_Y2023_G2019S_YF]	0.826	0.981	1.17	0.839	0.868	0.449	1.03	0.994	0.684	5.07	0.425	0.479	0.4	0.57	0.758	0.401

Further lines, with some results ahead:

SH2 binding enrichment (SHP2-C SH2)	SH2 binding enrichment (c-Src SH2)	SH2 binding enrichment (Grb2 SH2)	Sequence	phosphorylation enrichment (AncSZ)	phosphorylation enrichment (Fes)	phosphorylation enrichment (Hck)	phosphorylation enrichment (c-Abl (mouse))	phosphorylation enrichment (MERTK)	phosphorylation enrichment (EPHB1)	phosphorylation enrichment (EPHB2)	phosphorylation enrichment (c-Src)	phosphorylation enrichment (FGFR1)	phosphorylation enrichment (Fer (mouse))	phosphorylation enrichment (FGFR3)	phosphorylation enrichment (Jak2)	phosphorylation enrichment (Fyn)
1.72	1.51	1.86	HIILLYIFLKN [STXBP1_Y411_R406H]	1.27	1.6	0.501	1.2	0.657	0.906	0.567	0.568	0.755	0.495	1.08	1.16	0.447
1.08	0.457	0.964	PTTKTYFRHFD [HBA1_Y43_P45R]	0.556	0.998	0.539	0.667	0.466	0.546	0.409	0.545	0.65	0.312	0.66	0.959	0.393
2.29	1.55	2.1	RLLVVYPWTER [HBB_Y36_Q40E]	1.16	1.21	0.618	0.612	0.324	0.345	0.572	0.52	0.513	0.37	0.58	1.03	0.472
0.924	0.369	0.944	QSAGQYSSQGL [TNNI3K_Y788]	0.703	1.15	0.855	0.777	0.584	0.95	0.414	0.418	0.387	0.622	0.542	0.636	0.459
0.262	1.29	0.773	TVLEPYADPYY [ZC3H18_Y367]	2.42	1.69	0.834	1.25	0.712	0.566	0.697	2.44	0.785	0.516	0.905	1.58	1.23
